± gives the uncertainty stated by the source.
B1: library; numbered along this chain (parent)
chain: MEVVDPQQLGMFTEGELMSVGMDTFIHRIDSTEVIYQPRRKRAKLIGKYLMGDLLGEGSYGKVKEVLDSETLCRRAVKILKKKKLRRIPNGEANVKKEIQLLRRLRHKNVIQLVDVLYNEEKQKMYMVMEYCVCGMQEMLDSVPEKRFPVCQAHGYFCQLIDGLEYLHSQGIVHKDIKPGNLLLTTGGTLKISDLGVAEALHPFAADDTCRTSQGSPAFQPPEIANGLDTFSGFKVDIWSAGVTLYNITTGLYPFEGDNIYKLFENIGKGSYAIPGDCGPPLSDLLKGMLEYEPAKRFSIRQIRQHSWFRKKHPPAEAPVPIPPSPDTKDRWRSMTVVPYLEDLHGADEDEDLFDIEDDIIYTQDFTVPGQVPEEEASHNGQRRGLPKAVCMNGTEAAQLSTKSRAEGRAPNPARKACSASSKIRRLSACKQQ

Variants of: B1
Experiment: STK11 functional score (HeLa growth suppression), rescaled enrichment; synonymous median = 1, nonsense median = 0 (normalised score)
Settings: with HeLa; variant type: missense
In short: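 The values are functional scores: wild-type-corrected log ratios of post- versus pre-selection abundance, rescaled to synonymous and nonsense medians, merged over codons and replicate transfections, and carrying bootstrapped error. They derive from codon-randomised (POPCode), codon-optimised STK11 libraries that Bxb1 integrated at an AAVS1 landing pad in HeLa, with three transfections for each of three regions. Sequencing of tiled gDNA amplicons ran on NextSeq, at ~2 million reads per tile.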

STK11 functional score of substitutions, site by site:
Q152: V 1.19 ± 0.27 | L 0.195 ± 0.69 | S 0.733 ± 0.51 | P 0.0642 ± 0.62 | E 0.844 ± 0.51 | C 1.26 ± 0.19
F157: V -0.0226 ± 0.15 | G -0.101 ± 0.099 | L 0.19 ± 0.45 | W 0.714 ± 0.12 | M 0.503 ± 0.088
C158: M -0.0261 ± 0.52 | L 0.856 ± 0.2 | R 1.49 ± 0.35 | A 1.37 ± 0.59 | S 0.627 ± 0.15 | G 0.418 ± 0.096 | W 0.384 ± 0.11 | V 0.897 ± 0.2 | I 1.51 ± 0.3 | H 1.53 ± 0.32
D162: C 1.28 ± 0.15 | M 1.62 ± 0.2 | H 0.6 ± 0.53 | V 1.17 ± 0.11 | I 1.05 ± 0.58 | E 0.171 ± 0.15 | R 1.55 ± 0.43 | T 1.4 ± 0.28 | L 1.04 ± 0.23 | W 1.6 ± 0.22 | F 1.15 ± 0.4 | A 0.819 ± 0.49 | S 1.26 ± 0.13
Q159: L 0.623 ± 0.11 | S 0.691 ± 0.22 | P 0.757 ± 0.17 | C 0.889 ± 0.35 | K 0.6 ± 0.18 | V 0.324 ± 0.074 | R 1.03 ± 0.33 | D 1.12 ± 0.46 | W 0.972 ± 0.42 | M 1.14 ± 0.096 | Y 1.03 ± 0.46 | A 1.13 ± 0.21 | G 1.1 ± 0.15 | I 0.332 ± 0.27 | N 0.806 ± 0.79 | E 1.25 ± 0.55 | H 0.00983 ± 0.14
G171: W 1.53 ± 0.11 | L 1.43 ± 0.39 | S 1.41 ± 0.46 | I 1.46 ± 0.18 | C 0.479 ± 0.091 | V 1.25 ± 0.26 | R 1.24 ± 0.38 | N 1.69 ± 0.14 | A 1.18 ± 0.4
Y166: S 0.964 ± 0.3 | I 1.21 ± 0.56 | K 1.56 ± 0.29 | G 1.23 ± 0.34 | D -0.0245 ± 0.5 | M 0.651 ± 0.08 | F 1.05 ± 0.27 | C 0.804 ± 0.08 | T 1.11 ± 0.67 | A 1.47 ± 0.24 | L 0.75 ± 0.13 | W 0.846 ± 0.087 | P 0.994 ± 0.26 | V 1.14 ± 0.22
I172: L 0.71 ± 0.11 | V 1.21 ± 0.39 | N 0.174 ± 0.13 | P -0.291 ± 0.062 | W 0.519 ± 0.11 | R 0.401 ± 0.096 | G 0.806 ± 0.26 | F 0.904 ± 0.34 | M 0.35 ± 0.093 | A 1.02 ± 0.78 | S 0.549 ± 0.27
E165: S 1.39 ± 0.38 | Y 1.24 ± 0.15 | L 0.448 ± 0.22 | R 1.18 ± 0.59 | Q 0.995 ± 0.58 | T 0.129 ± 0.15 | V 0.465 ± 0.35 | M 0.0982 ± 0.39 | K 0.973 ± 0.53 | W 0.516 ± 0.11 | G 0.569 ± 0.084
S169: P 0.391 ± 0.098 | G 1.29 ± 0.33 | Y 1.54 ± 0.34 | I 0.231 ± 0.09 | A 1.09 ± 0.49 | V 0.428 ± 0.21 | H 1.43 ± 0.33 | R 0.882 ± 0.35 | W 1.25 ± 0.35 | T 1.22 ± 0.74 | L 0.7 ± 0.33
G163: P -0.013 ± 0.11 | H -0.383 ± 0.17 | R 0.0418 ± 0.45 | A 1.05 ± 0.2 | C 0.245 ± 0.11 | T 0.008 ± 0.28 | W 0.91 ± 0.22 | S 0.402 ± 0.13 | E -0.0159 ± 0.21 | V 0.0343 ± 0.1 | L 0.386 ± 0.3 | Y -0.0827 ± 0.069 | F -0.122 ± 0.17
I177: H -0.12 ± 0.21 | M 0.6 ± 0.17 | G -0.017 ± 0.094 | F 0.54 ± 0.074 | A 0.128 ± 0.22 | L 0.956 ± 0.15 | D 0.0262 ± 0.27 | R -0.0129 ± 0.087 | P 0.166 ± 0.58
L164: C 1.21 ± 0.15 | T 0.864 ± 0.19 | N 0.0402 ± 0.26 | P -0.0524 ± 0.1 | V 0.774 ± 0.13 | W 0.051 ± 0.1 | G -0.142 ± 0.098 | R -0.302 ± 0.12 | S 0.135 ± 0.1 | H 0.0804 ± 0.11 | F -0.208 ± 0.089 | I 1.16 ± 0.17
A153: G 1.13 ± 0.13 | W -0.261 ± 0.095 | P -0.338 ± 0.074 | Y -0.0988 ± 0.073 | M -0.195 ± 0.097 | V 0.499 ± 0.1 | R 0.204 ± 0.096 | F 0.0706 ± 0.09 | L 0.0918 ± 0.087 | D -0.157 ± 0.1 | E 0.243 ± 0.093 | I 0.28 ± 0.27
G155: R 0.742 ± 0.4 | A 1.27 ± 0.57
H154: M 0.597 ± 0.088 | R 0.997 ± 0.16 | S 0.47 ± 0.11 | I 0.492 ± 0.09 | L 0.189 ± 0.086 | N 0.196 ± 0.14 | A 1.49 ± 0.24 | V 0.314 ± 0.077 | W 0.87 ± 0.091 | P -0.204 ± 0.089 | Y 1.26 ± 0.12 | G 0.183 ± 0.15 | F 0.39 ± 0.065
I161: H -0.2 ± 0.12 | D -0.303 ± 0.097 | F -0.101 ± 0.25 | C 1.03 ± 0.48 | V 0.514 ± 0.39 | P 0.918 ± 0.66 | L 0.912 ± 0.23 | Y 0.129 ± 0.091 | N 0.158 ± 0.13 | G 0.264 ± 0.092 | M 1.31 ± 0.26 | E -0.456 ± 0.065 | T 1.31 ± 0.66 | W -0.296 ± 0.057 | R -0.0321 ± 0.14 | S -0.0934 ± 0.18
Q170: L 0.967 ± 0.15 | K 0.664 ± 0.14 | C 1.51 ± 0.44 | F 0.834 ± 0.45 | T 0.156 ± 0.35 | W 1.17 ± 0.12 | A 0.916 ± 0.14 | D -0.0762 ± 0.095 | V 1.26 ± 0.37 | R 1.16 ± 0.33 | H 0.738 ± 0.12 | P 0.0405 ± 0.082 | G 1.37 ± 0.37 | M 1.54 ± 0.25 | S 0.916 ± 0.13 | E 0.234 ± 0.13
L167: C 1.13 ± 0.77 | W -0.183 ± 0.049 | E -0.113 ± 0.12 | V 1.15 ± 0.2 | Y 0.387 ± 0.46 | F 1.05 ± 0.23 | H -0.00514 ± 0.083 | R -0.0722 ± 0.082 | P 0.104 ± 0.11 | D -0.162 ± 0.094 | G 0.121 ± 0.079 | I 1.44 ± 0.25 | N 0.605 ± 0.12 | K 0.0279 ± 0.15 | A 0.629 ± 0.09 | S 0.241 ± 0.14
C151: K 1.67 ± 0.32 | Q 1.54 ± 0.39 | T 0.991 ± 0.13 | Y 1.45 ± 0.41 | L 0.508 ± 0.091 | V 1.17 ± 0.39 | M 0.331 ± 0.57 | N 0.808 ± 0.43 | W 0.903 ± 0.12 | S 1.13 ± 0.38 | R 1.07 ± 0.59 | H 0.883 ± 0.11 | P 0.45 ± 0.22 | I 0.722 ± 0.19 | G 0.587 ± 0.11
Y156: W 0.28 ± 0.076 | C 0.324 ± 0.12 | V 1.06 ± 0.36 | G 0.044 ± 0.076 | P 0.418 ± 0.19 | T 1.13 ± 0.67 | M 1.69 ± 0.25 | L 1.34 ± 0.24 | F 1.27 ± 0.084 | A 0.114 ± 0.64 | I 1.04 ± 0.24 | Q 0.148 ± 0.081 | S 0.762 ± 0.14 | E 1.15 ± 0.36 | D 0.293 ± 0.4
V173: I 1.52 ± 0.25 | L 0.137 ± 0.13 | A 0.314 ± 0.31 | R 0.37 ± 0.16 | W 0.343 ± 0.097 | H 0.45 ± 0.086 | P 0.128 ± 0.49 | C 0.883 ± 0.57 | Q 1.46 ± 0.14 | S 1.23 ± 0.4 | G 1.15 ± 0.33 | Y 1.04 ± 0.13 | F 0.953 ± 0.33
H174: K 0.153 ± 0.09 | G 0.326 ± 0.24 | V 0.69 ± 0.11 | T 1.63 ± 0.19 | I 0.662 ± 0.19 | A 0.322 ± 0.12 | C 0.891 ± 0.41 | P 0.0698 ± 0.089 | S 0.695 ± 0.29 | F 0.138 ± 0.044 | L 0.234 ± 0.067 | Y 1.11 ± 0.27 | W 1.02 ± 0.37 | N 0.317 ± 0.17
D176: R -0.0226 ± 0.15 | E 0.211 ± 0.1 | I -0.156 ± 0.11 | N -0.273 ± 0.098 | H -0.154 ± 0.14 | W -0.0742 ± 0.054 | L -0.164 ± 0.061 | V 0.0775 ± 0.082 | M 0.0191 ± 0.14 | P 0.0199 ± 0.077 | F -0.058 ± 0.09 | K -0.194 ± 0.099 | Y -0.343 ± 0.096 | C -0.0937 ± 0.092 | A -0.0851 ± 0.1 | S -0.0857 ± 0.087 | T -0.105 ± 0.43 | G -0.169 ± 0.064
L160: I 1.17 ± 0.12 | E 0.305 ± 0.092 | P -0.129 ± 0.071 | W 0.0949 ± 0.08 | A 1.07 ± 0.18 | V 1.26 ± 0.14 | H 0.212 ± 0.28 | F 0.36 ± 0.21 | G -0.0371 ± 0.071 | R -0.13 ± 0.095 | S 0.508 ± 0.1 | Q 0.000621 ± 0.18
H168: F 0.851 ± 0.51 | Q 0.947 ± 0.14 | A 1.25 ± 0.34 | C 0.168 ± 0.32 | I 0.159 ± 0.098 | S 0.83 ± 0.3 | L 0.263 ± 0.078 | P 0.0717 ± 0.12 | V 0.473 ± 0.13 | W 0.545 ± 0.6 | N 0.275 ± 0.12 | Y 0.357 ± 0.26 | R 0.838 ± 0.47 | D 0.0708 ± 0.12 | G 0.533 ± 0.13 | M 0.519 ± 0.14 | E 1.3 ± 0.24
K175: G 0.847 ± 0.18 | W 0.478 ± 0.09 | A 0.904 ± 0.14 | P -0.179 ± 0.081 | L 1.11 ± 0.18 | F 0.988 ± 0.35 | Y 0.592 ± 0.48 | Q 1.19 ± 0.2 | V 0.466 ± 0.1 | N 0.914 ± 0.55 | S 0.884 ± 0.23 | R 1.47 ± 0.16 | I 0.589 ± 0.096 | T 1.07 ± 0.18
